Experimental data: publication PMC4462140

Molecular target: T1, myristoylated zGCAP2 (zebrafish), Q90WX3
T1 chain: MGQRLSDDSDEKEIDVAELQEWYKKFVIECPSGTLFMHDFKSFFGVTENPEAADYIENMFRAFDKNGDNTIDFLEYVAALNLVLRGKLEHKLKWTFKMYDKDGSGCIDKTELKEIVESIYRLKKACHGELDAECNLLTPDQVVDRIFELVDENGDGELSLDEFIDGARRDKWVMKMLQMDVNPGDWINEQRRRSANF
Experiment: SEC; analytical size exclusion chromatography of purified myristoylated zGCAPs on a Primaide HPLC system, as described previously (refs 12, 18, 30); Ca2+ dependence tested; data not shown
Settings: remark: other sources report otherwise

percent monomeric form: 80%
stoichiometry N: 2
B1: myristoylated zGCAP2, Q90WX3 1-197 (natural protein)
chain: MGQRLSDDSDEKEIDVAELQEWYKKFVIECPSGTLFMHDFKSFFGVTENPEAADYIENMFRAFDKNGDNTIDFLEYVAALNLVLRGKLEHKLKWTFKMYDKDGSGCIDKTELKEIVESIYRLKKACHGELDAECNLLTPDQVVDRIFELVDENGDGELSLDEFIDGARRDKWVMKMLQMDVNPGDWINEQRRRSANF
modifications: here or on the partner: N-terminal myristoyl group; N-terminal myristoyl group
